Key:
Test in all cases: purified protein
purified protein [1] = substrate: CC(C)=CCC/C(C)=C/C=O; settings: 150 µM NADPH, 20 mM MOPS pH 7.0, 3% DMSO, geranial/neral mixture
purified protein [2] = substrate: CC(=O)[C@H]1CC[C@H]2[C@@H]3CCC4=CC(=O)CC[C@]4(C)[C@H]3CC[C@]12C; settings: 150 µM NADPH, 20 mM MOPS pH 7.0, 3% DMSO, substrate 10-200 µM (limited solubility), crystal structure with NAD+ at 2.7 Å, poor ligand density
purified protein [3] = substrate: C/C(C=O)=C\CC/C(C)=C/C=O; settings: 150 µM NADPH, 20 mM MOPS pH 7.0, 3% DMSO, reductive cyclisation to nepetalactol, crystal structure with NADP+ at 1.86 Å

B1: PmMOR (P. major multisubstrate oxido-reductase) (Plantago major) (protein)
chain: MSWWWAGAIGAAKKRSDEDEALPKHSSVALIVGVTGIVGNSLAEILPLADTPSGPWKVYGVARRPRPAWNEDNPINYIRCDISDPKDTQEKLSPLTDITHVFYVTWANRSTEVERCEANGKMLKNVLDVVIPNCPDLKHISLQTGRKHYVGPFELIGKIETHDPPFTEDLPRLKFDNFYYTQEDLLFEEVEKKEGLTWSVHRPGNIFGFSPYSMMNLVGTLCVYAAICKHEGKVLRFPGCKAAWDGYSDCSDADLIAEHHIWAAVDPYAKNEAFNVSNGDVFKWKHFWKVLAEQFGVECGEYEEGENLKLQDLMKGKEPVWEEIVRENGLASTNLEDVAVWWFSDAVLDIPCPLDSMNKSKEHGFLGFRNSKNSFISWIDKAKAYKIVP
Purified protein [1]
  Km: 82 ± 4.5 µM
  Vmax: 0.00152 µmol/min
  kcat/Km: 17000 M⁻¹ s⁻¹
Purified protein [2]
  Km: 28 ± 3.0 µM
  Vmax: 0.00014 µmol/min
  kcat/Km: 2100 M⁻¹ s⁻¹
Purified protein [3]
  Km: 368 ± 37 µM
  Vmax: 0.0053 µmol/min
  kcat/Km: 2600 M⁻¹ s⁻¹
